Assay results from patent US20160223554A1, “METHODS FOR DIAGNOSIS, PROGNOSIS AND METHODS OF TREATMENT” (priority 2011, published 2016).

Key:
AML blasts = assay: SCNP phospho-flow signaling nodes in AML PBMC (Example 2, Study No. 1); type: cell-based, human; details: for Mean Value of CRs: CR patients; for Mean Value of CRs / Mean Value of NRs: Study No. 1; for Mean Value of NRs: NR patients
Experimental: Frozen cells are thawed in a 37° C. water bath and gently resuspended in the vial and transferred to the 15 mL conical tube. The 15 mL tube is centrifuged at 930 RPM (200×g) for 8 minutes at room temperature. The supernatant is aspirated and the pellet is gently resuspended in 1 mL media A. The cell suspension is filtered through a 70 um cell strainer into a new 15 mL tube. The cell strainer is rinsed with 1 mL media A and another 12 ml of media A into the 15 mL tube. The cells are mixed into an even suspension. A 20 μL aliquot is immediately removed into a 96-well plate containing 180 μL PBS+4% FBS+CD45 Alexa 700+PI to determine cell count and viability post spin. After the determination, the 15 mL tubes are centrifuged at 930 RPM (200×g) for 8 minutes at room temperature. The supernatant is aspirated and the cell pellet is gently resuspended in 4 mL PBS+4 μL Amine Aqua and incubated for 15 min in a 37° C. incubator. 10 mL RPMI+1% FBS is added to the cell suspension and the tube is inverted to mix the cells. The 15 mL tubes are centrifuged at 930 RPM (200×g) for 8 minutes at room temperature. The cells are resuspended in Media A at the desired cell concentration (1.25×10^6/mL). For samples with low numbers of cells (<18.5×10^6), the cells are resuspended in up to 15 mL media. For samples with high numbers of cells (>18.5×10^6), the volume is raised to 10 mL with media A and the desired volume is transferred to a new 15 mL tube, and the cell concentration is adjusted to 1.25×10^6 cells/ml. 1.6 mL of the above cell suspension (concentration at 1.25×10^6 cells/ml) is transferred into wells of a multi-well plate. From this plate, 80 ul is dispensed into each well of a subsequent plate. The plates are covered with a lid (Nunc) and placed in a 37° C. incubator for 2 hours to rest.
A concentration for each stimulant that is five folds more (5×) than the final concentration is prepared using Media A as diluent. 5× stimuli are arrayed into wells of a standard 96 well v-bottom plate that correspond to the wells on the plate with cells to be stimulated.
Adding the stimulant: The cell plate(s) are taken out of the incubator and placed in a 37° C. water bath next to the pipette apparatus. The cell plate is taken from the water bath and gently swirled to resuspend any settled cells. With pipettor, the stimulant is dispensed into the cell plate and vortexed at “7” for 5 seconds. The deep well plate is put back into the water bath.
The plate is covered with foil sealer and incubated in a 37° C. water bath for 10 minutes. The plate is spun for 6 minutes at 2000 rpm at room temperature. The cells are aspirated using a 96 well plate aspirator (VP Scientific). The plate is vortexed to resuspend cell pellets in the residual volume. The pellet is ensured to be dispersed before the Methanol step (see cell permeabilization) or clumping will occur.
Cell Permeabilization: Permeability agent, for example methanol, is added slowly and while the plate is vortexing. To do this, the cell plate is placed on titer plate shaker and made sure it is secure. The plate is set to shake using the highest setting. A pipetter is used to add 0.6 mls of 100% methanol to the plate wells. The plate(s) are put on ice until this step has been completed for all plates. Plates are covered with a foil seal using the plate roller to achieve a tight fit. At this stage the plates can be stored at −80° C.
Cells are thawed if frozen. Cells are pelleted at 2000 rpm 5 minutes. Supernatant is aspirated with vacuum aspirator. Plate is vortexed on a “plate vortex” for 5-10 seconds. Cells are washed with 1 mL FACS buffer. Repeat the spin, aspirate and vortex steps as above. 50 μL of FACS/stain buffer with the desired, previously optimized, antibody cocktail is added to two rows of cells at a time and agitate the plate. The plate is covered and incubated in a shaker for 30 minutes at room temperature (RT). During this incubation, the compensation plate is prepared.

[1] = system: elderly pts with untreated AML; details: cited from earlier work
[2] = Fold = log2(MFI modulated) - log2(MFI unmodulated), 9 CRs, Study No.1
[3] = Fold = log2(MFI modulated) - log2(MFI unmodulated), 25 NRs, Study No.1
[4] = Fold metric, Study No. 1, CRp patient included in NR group
[5] = Total Phospho metric, Study No. 1, CRp patient included in NR group
[6] = read-out p-CREB, metric TotalPhospho
[7] = read-out p-Erk, metric TotalPhospho
[8] = read-out p-Plcγ2, metric TotalPhospho
[9] = read-out p-Stat3, metric TotalPhospho
[10] = read-out p-Stat1, metric TotalPhospho

Molecule | p-Akt Fold, Mean Value of CRs (AML blasts; [2]) | p-Akt Fold, Mean Value of NRs (AML blasts; [3]) | Mean Value of CRs, p-Akt (AML blasts; [4]) | Mean Value of CRs, p-Erk (AML blasts; [4]) | Mean Value of NRs, p-Akt (AML blasts; [4]) | Mean Value of NRs, p-Erk (AML blasts; [4]) | Mean Value of CRs, p-CREB (AML blasts; [5]) | Mean Value of CRs, p-Plcγ2 (AML blasts; [5]) | Mean Value of NRs, p-CREB (AML blasts; [5]) | Mean Value of NRs, p-Plcγ2 (AML blasts; [5]) | Mean Value of CRs (AML blasts; read-out p-Akt, metric Fold) | Mean Value of NRs (AML blasts; read-out p-Akt, metric Fold) | Mean Value of CRs (AML blasts; [6]) | Mean Value of NRs (AML blasts; [6]) | Mean Value of CRs (AML blasts; [8]) | Mean Value of NRs (AML blasts; [8]) | Mean Value of CRs, p-Stat3 (AML blasts; [5]) | Mean Value of NRs, p-Stat3 (AML blasts; [5]) | Mean Value of CRs (AML blasts; [9]) | Mean Value of NRs (AML blasts; [9]) | other results
SCF: stem cell factor, ligand of c-Kit | 0.12 | 0.57 | 0.09 | −0.06 | 0.56 | 0.11 | 1.32 | 1.80 | 1.92 | 2.79 | 0.12 | 0.57 | 1.38 | 1.92 | 1.87 | 2.81 |  |  |  |  | Mean Value of CRs (AML blasts; read-out p-Erk, metric Fold): −0.05; Mean Value of NRs (AML blasts; read-out p-Erk, metric Fold): 0.11; Mean Value of CRs (AML blasts; [7]): 1.87; Mean Value of NRs (AML blasts; [7]): 2.28
FLT3L: fms-like tyrosine kinase receptor-3 ligand (protein, UniProt P49771 27-235, looked up) Fms-related tyrosine kinase 3 …: TQDCSFQHSPISSDFAVKIRELSDYLLQDYPVTVASNLQDEELCGGLWRLVLAQRWMERLKTVAGSKMQGLLERVNTEIHFVTKCAFQPPPSCLRFVQTNISRLLQETSEQLVALKPWITRQNFSRCLELQCQPDSSTLPPPWSPRPLEATAPTAPQPPLLLLLLLPVGLLLLAAAWCLHWQRTRRRTPRPGEQVPPVPSPQDLLLVEH | 0.18 | 0.64 | 0.10 | 0.08 | 0.65 | 0.33 | 1.39 | 1.81 | 2.13 | 2.78 | 0.18 | 0.64 | 1.50 | 2.12 | 1.88 | 2.80 |  |  |  |  | p-S6 Fold, Mean Value of CRs (AML blasts; [2]): 0.28; p-S6 Fold, Mean Value of NRs (AML blasts; [3]): 0.81; Mean Value of CRs, p-CREB (AML blasts; [4]): 0.07; Mean Value of CRs, p-Plcγ2 (AML blasts; [4]): −0.14; Mean Value of CRs, p-S6 (AML blasts; [4]): 0.14; Mean Value of NRs, p-CREB (AML blasts; [4]): 0.36; Mean Value of NRs, p-Plcγ2 (AML blasts; [4]): −0.08; Mean Value of NRs, p-S6 (AML blasts; [4]): 0.83; Mean Value of CRs (AML blasts; read-out p-S6, metric Fold): 0.28; Mean Value of NRs (AML blasts; read-out p-S6, metric Fold): 0.81
G-CSF: granulocyte colony-stimulating factor (protein, UniProt P09919 31-207, looked up) Granulocyte …: TPLGPASSLPQSFLLKCLEQVRKIQGDGAALQEKLVSECATYKLCHPEELVLLGHSLGIPWAPLSSCPSQALQLAGCLSQLHSGLFLYQGLLQALEGISPELGPTLDTLQLDVADFATTIWQQMEELGMAPALQPTQGAMPAFASAFQRRAGGVLVASHLQSFLEVSYRVLRHLAQP |  |  |  |  |  |  |  |  |  |  |  |  |  |  |  |  | 1.40 | 2.74 | 1.66 | 2.70 | p-Stat5 Fold, Mean Value of CRs (AML blasts; [2]): 0.47; p-Stat5 Fold, Mean Value of NRs (AML blasts; [3]): 1.13; Mean Value of CRs, p-Stat3 (AML blasts; [4]): 0.60; Mean Value of CRs, p-Stat5 (AML blasts; [4]): 0.33; Mean Value of NRs, p-Stat3 (AML blasts; [4]): 1.52; Mean Value of NRs, p-Stat5 (AML blasts; [4]): 1.15; Mean Value of CRs (AML blasts; read-out p-Stat5, metric Fold): 0.47; Mean Value of NRs (AML blasts; read-out p-Stat5, metric Fold): 1.13; Med RFS ([1]; SWOG-9031, by arm (NS)): 9 mo; G-CSF: 8; CR Rates ([1]; SWOG-9031, by arm, added to Ara-C/DNR induction, p = 0.89): G-CSF: 41%; Med. OS ([1]; SWOG-9031, by arm, p = .71): G-CSF: 6 mos.
IL-27: interleukin-27, cytokine modulator (protein, UniProt Q8NEV9 29-243; Q14213 21-229, looked up) Interleukin-27 subunit alpha: FPRPPGRPQLSLQELRREFTVSLHLARKLLSEVRGQAHRFAESHLPGVNLYLLPLGEQLPDVSLTFQAWRRLSDPERLCFISTTLQPFHALLGGLGTQGRWTNMERMQLWAMRLDLRDLQRHLRFQVLAAGFNLPEEEEEEEEEEEEERKGLLPGALGSALQGPAQVSWPQLLSTYRLLHSLELVLSRAVRELLLLSKAGHSVWPLGFPTLSPQP Interleukin-27 subunit beta: RKGPPAALTLPRVQCRASRYPIAVDCSWTLPPAPNSTSPVSFIATYRLGMAARGHSWPCLQQTPTSTSCTITDVQLFSMAPYVLNVTAVHPWGSSSSFVPFITEHIIKPDPPEGVRLSPLAERQLQVQWEPPGSWPFPEIFSLKYWIRYKRQGAARFHRVGPIEATSFILRAVRPRARYYVQVAAQDLTDYGELSDWSLPATATMSLGK |  |  |  |  |  |  | 1.25 |  | 2.36 |  |  |  | 1.40 | 2.35 |  |  | 1.01 | 1.85 | 1.07 | 1.86 | Mean Value of CRs, p-Stat1 (AML blasts; [5]): 0.39; Mean Value of NRs, p-Stat1 (AML blasts; [5]): 0.81; Mean Value of CRs (AML blasts; [10]): 0.41; Mean Value of NRs (AML blasts; [10]): 0.82
